Experimental data reported in US20060234917A1.

What was measured:
[1] = target: BAFF (Homo sapiens (Human)) (UniProt Q9Y275); assay: BIAcore 3000, solution-phase equilibrium binding, fit to a quadratic equation
[2] = target: BAFF (Homo sapiens (Human)) (UniProt Q9Y275); assay: BIAcore 3000, solution-phase equilibrium binding; free BAFF read on a BCMA-Fc chip; apparent KD

Row | stoichiometry (BAFF:BAFF-R:Fc) (BAFF:BAFF-R:Fc) [1] | Kd [2] | Substance
1 | 1 | < 200 µM | vBAFF-R(R3-A49):Fc (from UniProt Q96RJ3 2-48) (Fc fusion)
2 | 1 | < 200 µM | vBAFF-R(R3-A72):Fc (from UniProt Q96RJ3 2-71) (Fc fusion)
